Patent publication US20170145069A1 (Novo Nordisk, published 2017)
Substitutions are numbered along the chain they refer to. *1 amine or outer side, *2 acyl side, *3 side chain or, on linkers, in order; H or OH if unused. Where no end group is shown, it is not given here. Side-chain parts run from the residue outwards. [ ]: non-standard residue; d: D form. The star is where a group is joined. Undecanoyl(11-OPh(4-COOH)) = O=C(O)c1ccc(OCCCCCCCCCCC(=O)*)cc1; Decanoyl(10-(4-HOOC-PhO)) = O=C(O)c1ccc(OCCCCCCCCCC(=O)*)cc1; γGlu = O=C(O)[C@H](CCC(=O)[*:2])N[*:1]; εLys = N[C@@H](CCCCN[*:1])C(=O)[*:2]; AEEA = NCCOCCOCC(=O)O; Aib = CC(C)(N)C(=O)O

B1: GLP-1 derivative of Example 12 (Chem. 31), N^eps26,N^eps37-diacylated [Aib^8,His^34,Lys^37]-GLP-1-(7-37)-peptide (peptide)
peptide: HXEGTFTSDVSSYLEGQAAKEFIAWLVHGRK
modifications: Aib at 8; eps-amino of Lys26 and Lys37 each acylated with 13-carboxytridecanoyl-gGlu-Ser-Ser-Gly-Ser-Ser-Gly
B2: GLP-1 derivative of Example 29 (Chem. 48), N^eps26,N^eps37-diacylated [Aib^8,Arg^34,Lys^37]-GLP-1-(7-37)-peptide (peptide)
peptide: B1 peptide with H28R
modifications: Aib at 8; eps-amino of Lys26 and Lys37 each acylated with 12-(4-carboxyphenoxy)dodecanoyl-gGlu-Ser-Gly-Ser-eps-Lys
B3: GLP-1 derivative of Example 2 (Chem. 21), N^eps26,N^eps37-diacylated [Aib^8,His^31,Gln^34,Lys^37]-GLP-1-(7-37)-peptide (peptide)
peptide: B1 peptide with W25H, H28Q
modifications: Aib at 8; eps-amino of Lys26 and Lys37 each acylated with 10-(4-carboxyphenoxy)decanoyl-gGlu-Ser-Ser-Gly-Ser-Ser-Gly
B4: GLP-1 derivative of Example 11 (Chem. 30), N^eps26- and C-terminal-Lys-N^eps-diacylated [Aib^8,His^31,Gln^34]-GLP-1-(7-37)-peptidyl-Lys (peptide)
peptide: HXEGTFTSDVSSYLEGQAAKEFIAHLVQGRGK
modifications: Aib at 8; eps-amino of Lys26 and of the added C-terminal Lys (position 38) each acylated with 10-(4-carboxyphenoxy)decanoyl-gGlu-Ser-Ser-Gly-Ser-Ser-Gly
B5: GLP-1 derivative of Example 25 (Chem. 44), N^eps26,N^eps37-diacylated [Aib^8,Arg^34,Lys^37]-GLP-1-(7-37)-peptide (peptide)
peptide: B1 peptide with H28R
modifications: Aib at 8; eps-amino of Lys26 and Lys37 each acylated with 12-(4-carboxyphenoxy)dodecanoyl-gGlu-Ser-Ser-Gly-Ser-Ser-Gly-eps-Lys
B6: Comparative compound of Example 1a: Compound of Example 2, Chem. 21, in WO 2011/080103 (peptide)
peptide: B1 peptide with H28R
modifications: not fully specified; Aib at 8; eps-amino of Lys26 and Lys37 each acylated with 10-(4-carboxyphenoxy)decanoyl via the gGlu-2xOEG linker (as Example 1, only the linker differs)

biological target: T1, human GLP-1 receptor (human, UniProt P43220 24-463); test: cell-based or functional assay

| Binder | In vitro potency (CRE-luciferase) low albumin EC50 |
| --- | --- |
| H[Aib]EGTFTSDVSK([AEEA-AEEA-γGlu-Decanoyl(10-(4-HOOC-PhO))])YLEEQAAK([AEEA-AEEA-γGlu-Decanoyl(10-(4-HOOC-PhO))])EFIAWLVQGRG [Comparative compound of Example 7a: Compound of Example 2, Chem. 21, in WO 2012/062803] | 17 pM |
| B1 | 9.8 pM |
| B2 | 5 pM |
| B3 | 23 pM |
| H[Aib]EGTFTSDVSK([εLys-Ser-Ser-Ser-Ser-Ser-Ser-γGlu-Undecanoyl(11-OPh(4-COOH))])YLEGQAAK([εLys-Ser-Ser-Ser-Ser-Ser-Ser-γGlu-Undecanoyl(11-OPh(4-COOH))])EFIAWLVQGRG | 11 pM |
| H[Aib]EGTFTSDVSK([εLys-Gly-Ser-Ser-Gly-Ser-Ser-Gly-Ser-Ser-Gly-Ser-Ser-Gly-Ser-Ser-Gly-Ser-Ser-γGlu-Undecanoyl(11-OPh(4-COOH))])YLEGQAAK([εLys-Gly-Ser-Ser-Gly-Ser-Ser-Gly-Ser-Ser-Gly-Ser-Ser-Gly-Ser-Ser-Gly-Ser-Ser-γGlu-Undecanoyl(11-OPh(4-COOH))])EFIAWLVQGRG | 47 pM |
| HAEGTFTSDVSSYLEGQAAK([Gly-Ser-Ser-Gly-Ser-Ser-γGlu-Decanoyl(10-(4-HOOC-PhO))])EFIAWLVRGRK([Gly-Ser-Ser-Gly-Ser-Ser-γGlu-Decanoyl(10-(4-HOOC-PhO))])E | 8 pM |
| H[Aib]EGTFTSDVSK([Gly-Ser-Ser-Gly-Ser-Ser-Gly-Ser-Ser-Gly-Ser-Ser-γGlu-Undecanoyl(11-OPh(4-COOH))])YLEGQAAK([Gly-Ser-Ser-Gly-Ser-Ser-Gly-Ser-Ser-Gly-Ser-Ser-γGlu-Undecanoyl(11-OPh(4-COOH))])EFIAWLVQGRG | 29 pM |

biological target: T1, human GLP-1 receptor; test: cell-based or functional assay; remark: another data set of the same source

| Binder | In vitro potency (AlphaScreen cAMP; membranes) EC50 |
| --- | --- |
| H[Aib]EGTFTSDVSK([AEEA-AEEA-γGlu-Decanoyl(10-(4-HOOC-PhO))])YLEGQAAK([AEEA-AEEA-γGlu-Decanoyl(10-(4-HOOC-PhO))])EFIAWLVQGRG [Comparative compound of Example 9a: Compound of Example 92, Chem. 111, in WO 2012/062803] | 1590 pM |
| B4 | 381 pM |
| H[Aib]EGTFTSDVSK([εLys-Gly-Ser-Ser-Gly-Ser-Ser-γGlu-Undecanoyl(11-OPh(4-COOH))])YLEGQAAK([εLys-Gly-Ser-Ser-Gly-Ser-Ser-γGlu-Undecanoyl(11-OPh(4-COOH))])EFIAWLVQGRG | 89 pM |
| B5 | 252 pM |
| H[Aib]EGTFTSDVSK([AEEA-AEEA-γGlu-Decanoyl(10-(4-HOOC-PhO))])YLEEQAAK([AEEA-AEEA-γGlu-Decanoyl(10-(4-HOOC-PhO))])EFIAWLVQGRG [Comparative compound of Example 7a: Compound of Example 2, Chem. 21, in WO 2012/062803] | 395 pM |
| B1 | 145 pM |
| B2 | 238 pM |
| B3 | 116 pM |
| H[Aib]EGTFTSDVSK([εLys-Ser-Ser-Ser-Ser-Ser-Ser-γGlu-Undecanoyl(11-OPh(4-COOH))])YLEGQAAK([εLys-Ser-Ser-Ser-Ser-Ser-Ser-γGlu-Undecanoyl(11-OPh(4-COOH))])EFIAWLVQGRG | 181 pM |
| H[Aib]EGTFTSDVSK([εLys-Gly-Ser-Ser-Gly-Ser-Ser-Gly-Ser-Ser-Gly-Ser-Ser-Gly-Ser-Ser-Gly-Ser-Ser-γGlu-Undecanoyl(11-OPh(4-COOH))])YLEGQAAK([εLys-Gly-Ser-Ser-Gly-Ser-Ser-Gly-Ser-Ser-Gly-Ser-Ser-Gly-Ser-Ser-Gly-Ser-Ser-γGlu-Undecanoyl(11-OPh(4-COOH))])EFIAWLVQGRG | 486 pM |
| H[Aib]EGTFTSDVSK([εLys-Gly-Ser-Ser-Gly-Ser-Ser-Gly-Ser-Ser-Gly-Ser-Ser-γGlu-Undecanoyl(11-OPh(4-COOH))])YLEGQAAK([εLys-Gly-Ser-Ser-Gly-Ser-Ser-Gly-Ser-Ser-Gly-Ser-Ser-γGlu-Undecanoyl(11-OPh(4-COOH))])EFIAWLVQGRG | 350 pM |
| HAEGTFTSDVSSYLEGQAAK([Gly-Ser-Ser-Gly-Ser-Ser-γGlu-Decanoyl(10-(4-HOOC-PhO))])EFIAWLVRGRK([Gly-Ser-Ser-Gly-Ser-Ser-γGlu-Decanoyl(10-(4-HOOC-PhO))])E | 48 pM |
| H[Aib]EGTFTSDVSK([Gly-Ser-Ser-Gly-Ser-Ser-Gly-Ser-Ser-Gly-Ser-Ser-γGlu-Undecanoyl(11-OPh(4-COOH))])YLEGQAAK([Gly-Ser-Ser-Gly-Ser-Ser-Gly-Ser-Ser-Gly-Ser-Ser-γGlu-Undecanoyl(11-OPh(4-COOH))])EFIAWLVQGRG | 171 pM |

biological target: T1, human GLP-1 receptor; test: SPA, displacement of 125I-GLP-1(7-36)NH2, BHK membranes, 0.001% HSA
Protocol: Test compounds, membranes, SPA-particles and [¹²⁵I] ]-GLP-1(7-36)NH₂ were diluted in assay buffer. 50 ul (micro liter) buffer (“low albumin” experiment containing 0.001% HSA) was added to Optiplate, and 25 ul of test compounds were added. 5-10 μg membrane protein/sample was added (50 μl) corresponding to 0.1-0.2 mg protein/ml (to be preferably optimised for each membrane preparation). SPA-particles (Wheatgerm agglutinin SPA beads, Perkin Elmer, #RPNQ0001) were added in an amount of 0.5 mg/well (50 μl). The incubation was started with [¹²⁵I]-GLP-1]-(7-36)NH₂ (final concentration 0.06 nM corresponding to 49.880 DPM, 25 μl). The plates were sealed with PlateSealer and incubated for 120 minutes at 30° C. while shaking. The plates were centrifuged (1500 rpm, 10 min) and counted in Topcounter.
The IC₅₀ value was read from the curve as the concentration which displaces 50% of ¹²⁵I-GLP-1 from the receptor.

| Binder | IC50 |
| --- | --- |
| H[Aib]EGTFTSDVSK([AEEA-AEEA-γGlu-Decanoyl(10-(4-HOOC-PhO))])YLEGQAAK([AEEA-AEEA-γGlu-Decanoyl(10-(4-HOOC-PhO))])EFIAWLVQGRG [Comparative compound of Example 9a: Compound of Example 92, Chem. 111, in WO 2012/062803] | 8.09 nM |
| B4 | 12.8 nM |
| H[Aib]EGTFTSDVSK([εLys-Gly-Ser-Ser-Gly-Ser-Ser-γGlu-Undecanoyl(11-OPh(4-COOH))])YLEGQAAK([εLys-Gly-Ser-Ser-Gly-Ser-Ser-γGlu-Undecanoyl(11-OPh(4-COOH))])EFIAWLVQGRG | 0.48 nM |
| B6 | 2.27 nM |
| B5 | 0.27 nM |
| H[Aib]EGTFTSDVSK([AEEA-AEEA-γGlu-Decanoyl(10-(4-HOOC-PhO))])YLEEQAAK([AEEA-AEEA-γGlu-Decanoyl(10-(4-HOOC-PhO))])EFIAWLVQGRG [Comparative compound of Example 7a: Compound of Example 2, Chem. 21, in WO 2012/062803] | 7.03 nM |
| B1 | 4.61 nM |
| B2 | 0.27 nM |
| B3 | 8.99 nM |
| H[Aib]EGTFTSDVSK([εLys-Ser-Ser-Ser-Ser-Ser-Ser-γGlu-Undecanoyl(11-OPh(4-COOH))])YLEGQAAK([εLys-Ser-Ser-Ser-Ser-Ser-Ser-γGlu-Undecanoyl(11-OPh(4-COOH))])EFIAWLVQGRG | 0.42 nM |
| H[Aib]EGTFTSDVSK([εLys-Gly-Ser-Ser-Gly-Ser-Ser-Gly-Ser-Ser-Gly-Ser-Ser-Gly-Ser-Ser-Gly-Ser-Ser-γGlu-Undecanoyl(11-OPh(4-COOH))])YLEGQAAK([εLys-Gly-Ser-Ser-Gly-Ser-Ser-Gly-Ser-Ser-Gly-Ser-Ser-Gly-Ser-Ser-Gly-Ser-Ser-γGlu-Undecanoyl(11-OPh(4-COOH))])EFIAWLVQGRG | 4.87 nM |
| H[Aib]EGTFTSDVSK([εLys-Gly-Ser-Ser-Gly-Ser-Ser-Gly-Ser-Ser-Gly-Ser-Ser-γGlu-Undecanoyl(11-OPh(4-COOH))])YLEGQAAK([εLys-Gly-Ser-Ser-Gly-Ser-Ser-Gly-Ser-Ser-Gly-Ser-Ser-γGlu-Undecanoyl(11-OPh(4-COOH))])EFIAWLVQGRG | 2.27 nM |
| HAEGTFTSDVSSYLEGQAAK([Gly-Ser-Ser-Gly-Ser-Ser-γGlu-Decanoyl(10-(4-HOOC-PhO))])EFIAWLVRGRK([Gly-Ser-Ser-Gly-Ser-Ser-γGlu-Decanoyl(10-(4-HOOC-PhO))])E | 0.58 nM |
| H[Aib]EGTFTSDVSK([Gly-Ser-Ser-Gly-Ser-Ser-Gly-Ser-Ser-Gly-Ser-Ser-γGlu-Undecanoyl(11-OPh(4-COOH))])YLEGQAAK([Gly-Ser-Ser-Gly-Ser-Ser-Gly-Ser-Ser-Gly-Ser-Ser-γGlu-Undecanoyl(11-OPh(4-COOH))])EFIAWLVQGRG | 1.34 nM |
